Values of other authors as cited in paper PMC10219547.
Read-outs that look alike come from different tables or passages of the source.

Key:
[1] = target: PTH1R (Homo sapiens) (UniProt Q03431)
[2] = target: PTH1R (Homo sapiens) (UniProt Q03431); remark: listed apart in the source

Sequence of UniProt Q03431 (Q03431 27-593): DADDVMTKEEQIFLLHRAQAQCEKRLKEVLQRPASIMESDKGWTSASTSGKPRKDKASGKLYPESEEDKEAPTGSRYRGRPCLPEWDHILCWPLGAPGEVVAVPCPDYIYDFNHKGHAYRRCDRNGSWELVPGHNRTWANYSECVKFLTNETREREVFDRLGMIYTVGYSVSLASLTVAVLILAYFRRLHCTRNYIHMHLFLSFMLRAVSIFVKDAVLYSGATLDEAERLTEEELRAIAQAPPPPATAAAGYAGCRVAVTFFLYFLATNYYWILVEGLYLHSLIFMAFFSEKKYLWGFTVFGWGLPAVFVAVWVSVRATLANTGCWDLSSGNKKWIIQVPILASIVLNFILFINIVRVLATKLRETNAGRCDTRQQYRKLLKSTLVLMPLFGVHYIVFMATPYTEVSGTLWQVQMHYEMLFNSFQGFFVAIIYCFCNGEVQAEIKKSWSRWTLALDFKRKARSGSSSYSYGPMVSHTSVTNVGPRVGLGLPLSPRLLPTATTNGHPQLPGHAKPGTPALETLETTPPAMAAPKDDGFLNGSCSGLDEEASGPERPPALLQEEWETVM

## TIP39 (from UniProt Q96A98)
[1]
  Kd: 60 nM

## TIP(7-39) 7-39 (from UniProt Q96A98)
[2]
  Kd: 17 nM
